Assay results as given in patent publication US20180125892A1 (published 2018).
Residue numbers refer to the chain shown, from its start.

T1: human CD20 (human, UniProt P11836 1-297)
T1 construct: whole, on cells; cell-surface antigen; also called MS4A1
T1 sequence (looked up): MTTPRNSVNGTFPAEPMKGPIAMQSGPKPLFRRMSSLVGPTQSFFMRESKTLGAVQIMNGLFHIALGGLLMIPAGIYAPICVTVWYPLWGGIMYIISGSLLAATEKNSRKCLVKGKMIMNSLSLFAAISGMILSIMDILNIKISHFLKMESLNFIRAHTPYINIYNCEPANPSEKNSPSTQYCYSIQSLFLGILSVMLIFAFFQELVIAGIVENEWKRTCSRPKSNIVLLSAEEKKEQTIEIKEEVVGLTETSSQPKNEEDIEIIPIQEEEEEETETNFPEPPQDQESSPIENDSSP

B1: CD20-C5H1 CAR (other)
chain: QVQLVQSGAEVKKPGASVKVSCKASGYTFTSYNMHWVRQAPGQGLEWMGAIYPGNGDTSYNPKFKGRVTMTADKSTRTAYMELSSLRSEDTAVYYCARSYFYGSSSWYFDVWGQGTTVTVSSGGGGSGGGGSGGGGSGGGGSEIVLTQSPATLSLSPGERATLSCRASSSVSSMHWYQQKPGQAPRPLIFATSNLASGIPARFSGSGSGTDYTLTISSLEPEDAAVYYCQQWIFNPPTFGGGTKVEIKTTTPAPRPPTPAPTIASQPLSLRPEACRPAAGGAVHTRGLDFACDIYIWAPLAGTCGVLLLSLVITLYCKRGRKKLLYIFKQPFMRPVQTTQEEDGCSCRFPEEEEGGCELRVKFSRSADAPAYQQGQNQLYNELNLGRREEYDVLDKRRGRDPEMGGKPRRKNPQEGLYNELQKDKMAEAYSEIGMKGERRRGKGHDGLYQGLSTATKDTYDALHMQALPPR
notes: CAR on cell surface; residues 1-21 = signal peptide
B2: CD20-C5H3 CAR (other)
chain: B1 chain with A16S, M70I
notes: as for B1
B3: CD20-C2H1 CAR (other)
chain: QVQLVQSGAEVKKPGASVKVSCKASGYTFTNYWMHWVRQAPGQGLEWMGFITPTTGYPEYNQKFKDRVTMTADKSTSTAYMELSSLRSEDTAVYYCARRKVGKGVYYALDYWGQGTTVTVSSGGGGSGGGGSGGGGSGGGGSDIQMTQSPSSLSASVGDRVTITCRASGNIHNYLAWYQQKPGKVPKLLIYNTKTLADGVPSRFSGSGSGTDYTLTISSLQPEDVATYYCQHFWSSPWTFGGGTKVEIKTTTPAPRPPTPAPTIASQPLSLRPEACRPAAGGAVHTRGLDFACDIYIWAPLAGTCGVLLLSLVITLYCKRGRKKLLYIFKQPFMRPVQTTQEEDGCSCRFPEEEEGGCELRVKFSRSADAPAYQQGQNQLYNELNLGRREEYDVLDKRRGRDPEMGGKPRRKNPQEGLYNELQKDKMAEAYSEIGMKGERRRGKGHDGLYQGLSTATKDTYDALHMQALPPR
notes: CAR on cell surface
B4: CD20-C2H3 CAR (other)
chain: B3 chain with D143A, Q145R, S151F, G183A, V185A, L189F, V225F
notes: as for B1
B5: CD20-C2H4 CAR (other)
chain: B3 chain with A16S, M70I, D143A, Q145R, S151F, G183A, V185A, L189F, V225F
notes: as for B1
B6: CD20-C2H2 CAR (other)
chain: B3 chain with A16S, M70I
notes: as for B1
B7: CD20-C5H4 CAR (other)
chain: QVQLVQSGAEVKKPGSSVKVSCKASGYTFTSYNMHWVRQAPGQGLEWMGAIYPGNGDTSYNPKFKGRVTITADKSTRTAYMELSSLRSEDTAVYYCARSYFYGSSSWYFDVWGQGTTVTVSSGGGGSGGGGSGGGGSGGGGSDIQLTQSPSFLSASVGDRVTITCRASSSVSSMHWYQQKPGKAPKPLIFATSNLASGVPSRFSGSGSGTEYTLTISSLQPEDFATYYCQQWIFNPPTFGGGTKVEIKTTTPAPRPPTPAPTIASQPLSLRPEACRPAAGGAVHTRGLDFACDIYIWAPLAGTCGVLLLSLVITLYCKRGRKKLLYIFKQPFMRPVQTTQEEDGCSCRFPEEEEGGCELRVKFSRSADAPAYQQGQNQLYNELNLGRREEYDVLDKRRGRDPEMGGKPRRKNPQEGLYNELQKDKMAEAYSEIGMKGERRRGKGHDGLYQGLSTATKDTYDALHMQALPPR
notes: as for B1
B8: CD20-C5H2 CAR (other)
chain: B7 chain with S16A, I70M
notes: as for B1
B9: CD20-C8H4 CAR (other)
chain: QVQLVQSGAEVKKPGSSVKVSCKASGYTFTRYNMHWVRQAPGQGLEWMGAIYPGNGDTSYSQKFKGRVTITADKSTSTAYMELSSLRSEDTAVYYCARSFFYGSSDWYFDVWGQGTTVTVSSGGGGSGGGGSGGGGSGGGGSDIQLTQSPSFLSASVGDRVTITCRASSSVNNMHWYQQKPGKAPKPLIYATSNLASGVPSRFSGSGSGTEYTLTISSLQPEDFATYYCQQWIFNPPTFGQGTKLEIKTTTPAPRPPTPAPTIASQPLSLRPEACRPAAGGAVHTRGLDFACDIYIWAPLAGTCGVLLLSLVITLYCKRGRKKLLYIFKQPFMRPVQTTQEEDGCSCRFPEEEEGGCELRVKFSRSADAPAYQQGQNQLYNELNLGRREEYDVLDKRRGRDPEMGGKPRRKNPQEGLYNELQKDKMAEAYSEIGMKGERRRGKGHDGLYQGLSTATKDTYDALHMQALPPR
notes: as for B1
B10: CD20-C8H1 CAR (other)
chain: QVQLVQSGAEVKKPGASVKVSCKASGYTFTRYNMHWVRQAPGQRLEWMGAIYPGNGDTSYSQKFKGRVTITADKSASTAYMELSSLRSEDTAVYYCARSFFYGSSDWYFDVWGQGTTVTVSSGGGGSGGGGSGGGGSGGGGSEIVLTQSPDFQSVTPKEKVTITCRASSSVNNMHWYQQKPDQSPKPLIYATSNLASGVPSRFSGSGSGTDYTLTINSLEAEDAATYYCQQWIFNPPTFGQGTKLEIKTTTPAPRPPTPAPTIASQPLSLRPEACRPAAGGAVHTRGLDFACDIYIWAPLAGTCGVLLLSLVITLYCKRGRKKLLYIFKQPFMRPVQTTQEEDGCSCRFPEEEEGGCELRVKFSRSADAPAYQQGQNQLYNELNLGRREEYDVLDKRRGRDPEMGGKPRRKNPQEGLYNELQKDKMAEAYSEIGMKGERRRGKGHDGLYQGLSTATKDTYDALHMQALPPR
notes: as for B1
B11: CD20-C8H3 CAR (other)
chain: B10 chain with A16S, R44G, A76T
notes: as for B1
B12: CD20-C8H2 CAR (other)
chain: B9 chain with S16A, G44R, T76A
notes: as for B1
B13: CD20-C3H1 CAR (other)
chain: QVQLVQSGAEVKKPGASVKVSCKASGYTFTNYNLHWVRQAPGQGLEWMGAIYPGNYDTSYNQKFKGRVTMTADKSTSTAYMELSSLRSEDTAVYYCARVDFGHSRYWYFDVWGQGTTVTVSSGGGGSGGGGSGGGGSGGGGSEIVLTQSPATLSLSPGERATLSCRATSSVSSMNWYQQKPGQAPRPLIHATSNLASGIPARFSGSGSGTDYTLTISSLEPEDAAVYYCQQWTFNPPTFGQGTKLEIKTTTPAPRPPTPAPTIASQPLSLRPEACRPAAGGAVHTRGLDFACDIYIWAPLAGTCGVLLLSLVITLYCKRGRKKLLYIFKQPFMRPVQTTQEEDGCSCRFPEEEEGGCELRVKFSRSADAPAYQQGQNQLYNELNLGRREEYDVLDKRRGRDPEMGGKPRRKNPQEGLYNELQKDKMAEAYSEIGMKGERRRGKGHDGLYQGLSTATKDTYDALHMQALPPR
notes: as for B1
B14: CD20-C3H2 CAR (other)
chain: QVQLVQSGAEVKKPGASVKVSCKASGYTFTNYNLHWVRQAPGQGLEWMGAIYPGNYDTSYNQKFKGRVTMTADKSTSTAYMELSSLRSEDTAVYYCARVDFGHSRYWYFDVWGQGTTVTVSSGGGGSGGGGSGGGGSGGGGSDIQLTQSPSFLSASVGDRVTITCRATSSVSSMNWYQQKPGKAPKPLIHATSNLASGVPSRFSGSGSGTEYTLTISSLQPEDFATYYCQQWTFNPPTFGQGTKLEIKTTTPAPRPPTPAPTIASQPLSLRPEACRPAAGGAVHTRGLDFACDIYIWAPLAGTCGVLLLSLVITLYCKRGRKKLLYIFKQPFMRPVQTTQEEDGCSCRFPEEEEGGCELRVKFSRSADAPAYQQGQNQLYNELNLGRREEYDVLDKRRGRDPEMGGKPRRKNPQEGLYNELQKDKMAEAYSEIGMKGERRRGKGHDGLYQGLSTATKDTYDALHMQALPPR
notes: as for B1

Target: T1, human CD20
Experiment: worded conclusion from JNL NFAT-luciferase reporter co-culture with CD20-positive cell lines
Excerpt: To evaluate the functional ability of CD20 CARs to activate JNL cells, they were co-cultured with target cancer cells to read out their activation by quantifying luciferase expression. The humanized scFv-based CARs CD20-C2H1, -C2H2, -C2H3, -C2H4, -C3H1, -C3H2, -C3H3, -C3H4, -C5H1, -C5H2, -C5H3, -C5H4, -C8H1, -C8H2, -C8H3, and -C8H4, were compared to CD20-8aBBz and CD20-3, -3m, -3J, -3H5k3, and -3H5k1. The control CARs CD20-3 and CD20-8aBBz were used in all assays to compare assay variation and/or act as a control. The EGFRvIII CAR T cells (CAR 2174, Johnson et al., Science Translational Medicine 2015) were used as non-targeting control.
JNL CART cells were co-cultured with the Burkitt's lymphoma line Raji (RRID: CVCL_0511) and the diffuse large B cell lymphoma (DLBCL) lines Pfeiffer (RRID: CVCL_3326), HBL-1 (RRID: CVCL_4213) and TMD8 (RRID: CVCL_A442); K562 (RRID: CVCL_0004), a chronic myelogenous leukemia (CML) cell line, served as CD20-negative control. Co-cultures were set up in 384-well plates at effector-to-target (E:T) ratios of 4:1, 2:1, 1:1 and 0.5:1 and incubated for 24 h, after which the expression of luciferase by the activated JNL CAR T cells was quantified by britelite plus Reporter Gene Assay System (PerkinElmer, Waltham, Mass.). The amount of light emitted from each well (Luminescence) was a direct read-out of JNL activation by the respective CAR. […] Some of the humanized scFvs, which were fused to the transmembrane and signaling domains of the CARs, seem to have improved the efficacy of CARs to activate JNL T cells. These were CD20-C2H1, -C2H3, -C5H1, -C5H2, and -C8H3.

| binding result | Binder |
| --- | --- |
| binds | B1 |
| binds | B2 |
| binds | B3 |
| binds | B4 |
| binds | B5 |
| binds | B6 |
| binds | B7 |
| binds | B8 |
| binds | B9 |
| binds | B10 |
| binds | B11 |
| binds | B12 |
| binds | B13 |
| binds | B14 |
